Measurements published in patent US20050137130A1, “Medical treatment” (priority 2001, published 2005).

Test system: activated human CD4+ T cells
Test: Cytokine production (ELISA) by human CD4+ T cells stimulated with anti-CD3/CD28 beads and Delta1 beads, with added soluble protein
Assay type: cell-based
Settings: increasing amounts of soluble protein in culture medium, 3 days
Procedure: M450 Streptavidin Dynabead™ magnetic beads (Dynal, USA) were coated with an anti-human-IgG4 biotinylated monoclonal antibody (BD Bioscience, 555879) by rotating them in the presence of the antibody for 30 minutes at room temperature. Beads were washed three times with PBS (1 ml). They were further incubated with hDelta1-hIgG4 (see Example 1 above) for 2 hours at room temperature and then washed three times with PBS (1 ml).
Human peripheral blood mononuclear cells (PBMC) were purified from blood using Ficoll-Paque separation medium (Pharmacia). Briefly, 28 ml of blood were overlaid on 21 ml of Ficoll-Paque separation medium and centrifuged at 18-20° C. for 40 minutes at 400 g. PBMC were recovered from the interface and washed 3 times before use for CD4+ T cell purification.
The CD4+ T cells were incubated in triplicates in a 96-well-plate (flat bottom) at 10^5 CD4/well/200 μl in RPMI medium containing 10% FCS, glutamine, penicillin, streptomycin and β2-mercaptoethanol.
Cytokine production was induced by stimulating the cells with anti-CD3/CD28 T cell expander beads from Dynal at a 1:1 ratio (bead/cell) in the presence of beads coated with hDelta1-IgG4Fc fusion protein (Example 1 above) at a 5:1 ratio (beads/cell). In some wells, increasing amounts of soluble hdelta1-IgG4Fc fusion protein were also added.
(§1) The supernatants were removed after 3 days of incubation at 37° C./5% CO2/humidified atmosphere and cytokine production was evaluated by ELISA using Pharmingen kits OptEIA Set human IL10 (catalog No. 555157), OptEIA Set human IL-5 (catalog No. 555202) for IL-10 and IL-5 respectively according to the manufacturer's instructions.
Human peripheral blood mononuclear cells (PBMC) were purified from blood using Ficoll-Paque separation medium (Pharmacia). […]
as §1, with “(Catalog” for “(catalog”, “instructions. […]” for “instructions.”

B1: rat Notch1-hIgG1Fc: R&D Systems Catalog No 1057-TK; 12 amino terminal EGF domains of rat Notch-1 fused to the Fc region of human IgG (protein)
chain: ARGLRCSQPSGTCLNGGRCEVANGTEACVCSGAFVGQRCQDPSPCLSTPCKNAGTCYVVDHGGIVDYACSCPLGFSGPLCLTPLANACLANPCRNGGTCDLLTLTEYKCRCPPGWSGKSCQQADPCASNPCANGGQCLPFESSYICGCPPGFHGPTCRQDVNECSQNPGLCRHGGTCHNEIGSYRCACRATHTGPHCELPYVPCSPSPCQNGGTCRPTGDTTHECACLPGFAGQNCEENVDDCPGNNCKNGGACVDGVNTYNCRCPPEWTGQYCTEDVDECQLMPNACQNGGTCHNSHGGYNCVCVNGWTGEDCSENIDDCASAACFQGATCHDRVASFYCECPHGRTGLLCHLNDACISNPCNEGSNCDTNPVNGKAICTCPSGYTGPACSQDVDECALGANPCEHAGKCLNTLGSFECQCLQGYTGPRCEIDVNECISNPCQNDATCLDQIGEFQCICMPGYEGVYCEIEGRMD
modifications: left off: a dimerising Fc or GST
notes: R&D Systems Catalog No 1057-TK; 12 amino terminal EGF domains of rat Notch-1 fused to the Fc region of human IgG
effect of added soluble protein on the IL-10 enhancement by bead-immobilised Delta1: inhibited
